From patent publication US20110027794 come the findings set out here.

The target of one data set is DNase I (UniProt P00639). Nature of the data set: cleavage_in_vitro. The conditions noted are these: 2'-F at all nucleotides; 100 mM NaOAc, 5 mM MgCl2, 37 C, 5 min.
The test system of data set [1] is unnamed basic selection target protein (pI 9, 9 kDa). Nature of the data set: SELEX. The settings on record: 2'-F at all nucleotides; 0.89% bound with protein vs 0.48% without after 4 rounds; 20 mM Tris pH 7.4, 150 mM NaCl, 4 mM KCl, 1 mM MgCl2, 1 mM CaCl2, 0.1% Tween-20, 37 C.

DNase I, sequence (P00639 23-282): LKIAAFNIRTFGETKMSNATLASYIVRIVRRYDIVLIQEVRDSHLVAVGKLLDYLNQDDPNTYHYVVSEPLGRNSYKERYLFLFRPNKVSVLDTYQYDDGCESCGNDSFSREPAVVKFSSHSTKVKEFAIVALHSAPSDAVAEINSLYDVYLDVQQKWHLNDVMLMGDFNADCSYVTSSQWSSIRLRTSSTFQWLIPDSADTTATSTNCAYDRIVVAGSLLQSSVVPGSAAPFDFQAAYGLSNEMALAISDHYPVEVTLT

As for “NNNNNNNNNNNNNNNNNNNNNNNNNNNNNNNNNNNNNNNNCACGAGTGAAGTCTGAGCTCC”, the binding signal (fold more stable than DNA) with DNase I was above 100.
“GTGGAACCGACAGTGGTACGTGNNNNNNNNNNNNNNNNNNNNNNNNNNNNNNNNNNNNNNNNCACGAGTGAAGTCTGAGCTCC [BSA-1C FNA pool, selection round 4]”: the binding signal (fold over no-protein control) in data set [1] was found to be 1.85.
